Test results as given in US6569419B2, “Methods for promoting production of myelin by Schwann cells” (ZymoGenetics, Inc., priority 2000, dated 2003).

B1: human Zcyto7: Human Zcyto7 polypeptide (SEQ ID NO: 2), identified by its homology to Interleukin-17; used at 100 ng/ml (protein)
chain: MDWPHNLLFLLTISIFLGLGQPRSPKSKRKGQGRPGPLAPGPHQVPLDLVSRMKPYARMEEYERNIEEMVAQLRNSSELAQRKCEVNLQLWMSNKRSLSPWGYSINHDPSRIPVDLPEARCLCLGCVNPFTMQEDRSMVSVPVFSQVPVRRRLCPPPPRTGPCRQRAVMETIAVGCTCIF
B2: Zcyto7: Zcyto7 polypeptide; species and solution not stated in Example 6 (protein)
chain: B1 chain

Columns and labels:
[1] = system: primary rat Schwann cells; test: Induction of protein zero expression in Schwann cells (Western blot); type: cell-based; conditions: 100 ng/ml, N2 medium + 1 μM progesterone
Description: Primary Schwann cells were prepared as described above using 1-day old CD rat neonates. Schwann cells were grown in DMEM, 10% fetal bovine serum (FBS), plus bovine pituitary extract (PEX) at 20 μg/ml and Forskolin at 2μM. The cells were weaned down to a low serum medium (“Li” medium with 1% FBS added to it). Li medium was comprised of DMEM/F12, 10 μg/ml tranferrin, 5 μg/ml insulin, 2 nM progesterone, 2 μM Forskolin, 20 μg/ml PEX, and 20 ng/ml Heregulin-beta-1 (R & D Systems).
The Schwann cells were grown to confluency in the low serum growth medium on poly-L-lysine-coated 10 cm tissue culture dishes. The cell medium was changed to N2 medium+1 μM progesterone with either Forskolin (Calbiochem) (10 μM and 25 μM) or 100 ng/ml of human Zcyto7. Control medium was Schwann cells in N2+1 μM progesterone for the whole time. Cells were harvested and placed in lysis buffer (125 mM Tris HCl, pH 7.0, 15% sucrose, 4% SDS, 10 mM EDTA, plus added Roche Complete-EDTA-free, protease inhibitor cocktail).
Protein concentrations of cell lysates were determined by Pierce BCA protein assay (Pierce Chemical Co., Rockford, Ill.). Forty micrograms of each cell lysate sample was run on a 4-12% Tris-Glycine gel (Novex) at 125 V for 1 hour 30 minutes, and transferred onto a PVDF membrane in a Hoeffer unit a 550 mAmps for 1 hour. Mouse monoclonal antibody to protein zero was used at 1:1000 dilution (1 μg/am final concentration) to probe the blot. A Vectastain biotin/streptavidin-HRP 2nd antibody system was used for amplication. The blot was developed with Pierce SuperSignal West Pico chemiluminescent substrate and scanned on a Boehringer-Mannheim Lumi-Imager.

[2] = system: mRNA that encodes myelin basic protein and protein zero; test: Hybridization studies: mRNA levels that encode myelin basic protein and protein zero; type: cell-based
Description: The expression of myelin basic protein and protein zero was also determined by measuring the mRNA levels that encode myelin basic protein and protein zero.

| Molecule | Relative percentage of P zero protein (media control = 100%) [1] | mRNA that encodes for myelin basic protein [2] | mRNA that encodes for protein zero [2] |
| --- | --- | --- | --- |
| B1 | 173% |  |  |
| B2 |  | upregulated | upregulated |
